From patent US20200085917A1 (UNIVERSITY OF PITTSBURGH OF THE COMMONWEALTH SYSTEM OF …, published 2020)

target: T1, GST alone (UniProt P08515 1-218 = GST); experiment: GST pull-down, LC-MS/MS
T1 construct: Negative control of the pull-downs; also called control GST
Experimental: Extracts were spun at 14,000 r.p.m. at 4° C., and clarified supernatants were incubated with glutathione 4B Sepharose beads (GE Healthcare) at 4° C. overnight. The glutathione beads were then washed extensively with ice-cold TNE buffer, and bound proteins were subjected to SDS-PAGE followed by immunoblotting analysis. For the samples subjected to mass spectrometry, glutathione bead-bound proteins from equal amounts (600 μg) of mitochondria were further washed with high stringency RIPA buffer following TNE buffer wash to decrease nonspecific interaction. Proteins were then eluted from the glutathione beads in SDS sample buffer, separated by SDS-PAGE and stained with Coomassie. Proteins in the gel were digested with trypsin and analyzed by mass spectrometry (LC-MS/MS) at the Taplin Biological Mass Spectrometry Facility (Harvard Medical School, Boston, Mass.).

T1 sequence (P08515 whole entry): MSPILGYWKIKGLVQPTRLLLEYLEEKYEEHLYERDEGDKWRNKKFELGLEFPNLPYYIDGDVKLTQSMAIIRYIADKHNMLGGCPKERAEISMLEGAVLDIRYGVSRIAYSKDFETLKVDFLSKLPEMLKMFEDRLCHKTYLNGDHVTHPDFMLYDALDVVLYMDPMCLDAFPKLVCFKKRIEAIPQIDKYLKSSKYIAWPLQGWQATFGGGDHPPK

| binding result | Binder |
| --- | --- |
| no binding | Atp5f1_IPI:IPI00341282.2 (other, mouse, UniProt Q9CQQ7 43-256, looked up) PLPPLPEYGGKVRLGLIPEEFFQFLYPKTGVTGPYVLGTGLSLYFLSKEIYVITPETFSTISVVGLIVYVIKKYGASFGEFIDKLNEEKIAQLEEVKQSSMKQIQDAIDMEKAQQALVQKRHYLFDVQRNNIALALEVTYRERLHKAYKEVKNRLDYHISVQNMMRRKEEEHMIDWVEKHVVKSISVQQEKETIAKCIEDLKLLAKKAQAQPIM |
| no binding | Rab15_IPI:IPI00170032.1 (other, Natural C-terminal geranylgeranylation of the cysteines (CWC motif) in the endogenous protein is not carried by the letters.) MAKQYDVLFRLLLIGDSGVGKTCLLCRFTDNEFHSSHISTIGVDFKMKTIDVDGIKVRIQIWDTAGQERYQTITKQYYRRAQGIFLVYDISSERSYQHIMKWVSDVDEYAPEGVQKILIGNKADEEQKRQVGREQGQQLAKEYGMDFYETSACTNLNIKESFTRLTELVLQAHRKELDGLRTRASNELALAELEEDEGKPEGPANSSKTCWC |
| no binding | Uqcrq_IPI:IPI00224210.5 (other, mouse, UniProt Q9CQ69 1-82, looked up) MGREFGNLARIRHVISYSLSPFEQRAFPSYFSKGIPNVLRRTRERILRVAPPFVVVYLIYTWGNQEFEQSKRKNPAMYENDK |
| no binding | C1qbp_IPI:IPI00132799.4 (other, mouse, UniProt O35658 71-278, looked up) LHTEGDKAFVEFLTDEIKEEKKIQKHKSLPKMSGDWELEVNGTEAKLLRKVAGEKITVTFNINNSIPPTFDGEEEPSQGQKAEEQEPERTSTPNFVVEVTKTDGKKTLVLDCHYPEDEIGHEDEAESDIFSIKEVSFQATGDSEWRDTNYTLNTDSLDWALYDHLMDFLADRGVDNTFADELVELSTALEHQEYITFLEDLKSFVKNQ |
| no binding | Tomm20_IPI:IPI00120715.1 (other, mouse, UniProt Q9DCC8 1-145, looked up) MVGRNSAIAAGVCGALFIGYCIYFDRKRRSDPNFKNRLRERRKKQKLAKERAGLSKLPDLKDAEAVQKFFLEEIQLGEELLAQGDYEKGVDHLTNAIAVCGQPQQLLQVLQQTLPPPVFQMLLTKLPTISQRIVSAQSLAEDDVE |
| no binding | Mrpl14_IPI:IPI00133778.1 (other, mouse, UniProt Q9D1I6 31-145, looked up) AVQKMTRVRVVDNSALGSTPYHRPPRCIHVYNKSGVGKVGDQILLAIRGQKKKALIVGHRMPGSRMTPKFDSNNVVLIEDNGNPVGTRIKIPIPTSLRRREGEYSKVLAIAQNFV |
| no binding | Mrps33_IPI:IPI00135214.1 (other, mouse, UniProt Q9D2R8 2-106, looked up) SPLSEYALRMSRLSARIFGEVARSTDSKSMKVVSLFSEQPLAKKKETYDWYPNHNTYFALMGNLRFLGLYRDEHQDFKDEQRRLKKLRGKGKPRKGEGKRATKKK |
| no binding | Synj2bp_IPI:IPI00109206.1 (other, mouse, UniProt Q9D6K5 1-145, looked up) MNGRVDYLVTEEEINLTRGPSGLGFNIVGGTDQQYVSNDSGIYVSRIKEDGAAAQDGRLQEGDKILSVNGQDLKNLLHQDAVDLFRNAGCAVSLRVQHRLPVQNGPIVHRGEGEPSGVPVAMVLLPVFALTMVAVWAFVRYRKQL |
| no binding | Fabp5_IPI:IPI00114162.3 (other, mouse, UniProt Q05816 2-135, looked up) ASLKDLEGKWRLMESHGFEEYMKELGVGLALRKMAAMAKPDCIITCDGNNITVKTESTVKTTVFSCNLGEKFDETTADGRKTETVCTFQDGALVQHQQWDGKESTITRKLKDGKMIVECVMNNATCTRVYEKVQ |
| no binding | Fahd1_IPI:IPI00468850.1 (other, mouse, UniProt Q8R0F8 25-221, looked up) ADHVKEMRSTVLSEPVLFLKPSTAYAPEGSPVLMPAYCRNLHHEVELGVLLGKRGEAIPEAAAMDYVAGYALCLDMTARDVQEECKKKGLPWTLAKSFTSSCPVSAFVPKEKIPDPHALRLWLKVNGELRQEGKTSSMIFSIPYIISYVSKIITLEEGDLILTGTPKGVGPIKENDEIEAGIDGVVSMRFKVKRSEY |
| no binding | Uqcrb_IPI:IPI00132347.1 (other, mouse, UniProt Q9D855 2-111, looked up) AGRSAVSASSKWLDGFRKWYYNAAGFNKLGLMRDDTLHETEDVKEAIRRLPEDLYNDRMLRIKRALDLTMRHQILPKDQWTKYEEDKFYLEPYLKEVIRERKEREEWAKK |
| no binding | Lyrm4_IPI:IPI00169804.1 (other, mouse, UniProt Q8K215 1-91, looked up) MAASSRAQVLDLYRAMMRESKHFSAYNYRMYAVRRIRDAFRENKNVKDPVEIQALVNKAKRDLEIIRRQVHIGQLYSTDKLIIENQEKPRT |
| no binding | Chchd4_IPI:IPI00124389.1 (other, mouse, UniProt Q8VEA4 1-139, looked up) MSYCRQEGKDRIIFVTKEDHETPSSAELVADDPNDPYEEHGLILPNGDINWNCPCLGGMASGPCGEQFKSAFSCFHYSTEDIKGSDCIDQFRAMQECMQKYPDLYPQDEEEEEEAKPVEPVEETADTKVSAAKEQGTSS |
| no binding | Iscu_IPI:IPI00110578.1 (other, mouse, UniProt Q9D7P6 36-168, looked up) YHKKVVDHYENPRNVGSLDKTSKNVGTGLVGAPACGDVMKLQIQVDEKGKIVDARFKTFGCGSAIASSSLATEWVKGKTVEEALTIKNTDIAKELCLPPVKLHCSMLAEDAIKAALADYKLKQESKKEEPEKQ |
| no binding | Brp44_IPI:IPI00131896.1 (other, mouse, UniProt Q9D023 1-127, looked up) MAAAGARGLRATYHRLMDKVELLLPKKLRPLYNHPAGPRTVFFWAPIMKWGLVCAGLADMARPAEKLSTAQSTVLMATGFIWSRYSLVIIPKNWSLFAVNFFVGSAGASQLFRIWRYNQELKSKGIQ |
| no binding | Cplx1_IPI:IPI00132278.1 (other, mouse, UniProt P63040 1-134, looked up) MEFVMKQALGGATKDMGKMLGGDEEKDPDAAKKEEERQEALRQAEEERKAKYAKMEAEREVMRQGIRDKYGIKKKEEREAEAQAAMEANSEGSLTRPKKAIPPGCGDEPEEEDESILDTVIKYLPGPLQDMFKK |
| no binding | Lyrm7_IPI:IPI00117832.1 (other, mouse, UniProt Q9DA03 1-104, looked up) MGQPAKVLQLFKTLHRTRQQVFKNDKRALEAARVKINEEFKKHKNETSPEKIKEMMKLGSDVELLLRTAVIQGIHTDHDTLQLVPRKDLLTENVPYCDAPTQKQ |
| no binding | Hint2_IPI:IPI00133034.3 (other, mouse, UniProt Q9D0S9 18-163, looked up) LAAAGARGAQVRGNAGVSDGSEVAKAQKAAPGGASPTIFSRILDRSLPADILYEDQQCLVFRDVAPQAPVHFLVIPRKPIPRISQAEEDDQQLLGHLLLVAKKIAQAQGLKDGYRLVVNDGKMGAQSVYHLHIHVLGGRQLQWPPG |
| no binding | Ppdpf_IPI:IPI00133078.1 (other, mouse, UniProt Q9CR37 1-115, looked up) MAAIPSSGSLVATHDYYRRRLGSSSSSSSGGSAEYPGDAVLQSPGLPKADPGHWWASFFFGKSTLPFMTTVLESPERSAESPQVSRSPMTCGLTPETMKQQPVIHSGQTNPRDLS |
| no binding | Ndufa11_IPI:IPI00318645.6 (other, mouse, UniProt Q9D8B4 1-141, looked up) MVKRFFESYHEVPDGTQCHRKTYITTALGGICGIIGSAYRVSLNPADSTLEAVARVGRYTFTAAAIGAMFGLTTCVSAQVREKPDDPLNYFIGGCAGGLTLGARTHSYGTAAMGCVYMGTAAALFKIGKLEGWELFPTPKV |
| no binding | Pfn2_IPI:IPI00227805.6 (other, mouse, UniProt Q9JJV2 2-140, looked up) AGWQSYVDNLMCDGCCQEAAIVGYCDAKYVWAATAGGVFQSITPVEIDMIVGKDREGFFTNGLTLGAKKCSVIRDSLYVDGDCTMDIRTKSQGGEPTYNVAVGRAGRVLVFVMGKEGVHGGGLNKKAYSMAKYLRDSGF |
| no binding | Mrpl43_IPI:IPI00278781.1 (other, mouse, UniProt Q99N89 1-183, looked up) MTGRGTSSRFLTSVLHNGLGRYVQQLQRLSLSLSRDAPSSRGAREFVEREVTDFARRNPGVVVYVNPRPCAMPRIVAEYLNGAVREENVNSKSVEEIKSLVQKLADQSGLDVIRIRKPFHTDNPSIQGQWTPSPTNGLPSTGCGPENSGILLQLRCKHSKEPGALDRERDRIGSSFGFQAQAE |
| no binding | Cisd3_IPI:IPI00345740.4 (other, mouse, UniProt B1AR13 1-137, looked up) MGFRRLSFPTDFIFLFPNHICLPALSKPYQRREISSWLARWFPKDPAKPVVAQKTPIRLELVAGKTYRWCVCGRSKNQPFCDGSHFFQRTGLSPLKFKAQETRTVALCTCKATQRPPYCDGTHKSEQVQKAEVGSPL |
| no binding | Tim23 (endogenous, mouse forebrain mitochondria) (other, UniProt Q9WTQ8 1-209, looked up, also called Timm23_IPI:IPI00123712.1; Tim23 subunit) MEGGGRSSNKSTSGLAGFFGAGGAGYSNADLAGVPLTGMNPLSPYLNVDPRYLVQDTDEFILPTGANKTRGRFELAFFTIGGCCMTGAAFGAMNGLRLGLKETQSMAWSKPRNVQILNMVTRQGALWANTLGSLALLYSAFGVIIEKTRGAEDDLNTVAAGTMTGMLYKCTGGLRGIARGGLAGLTLTSLYALYNNWVHMKGSLLQQSL |
| no binding | Cplx2_IPI:IPI00111501.1 (other, mouse, UniProt P84086 1-134, looked up) MDFVMKQALGGATKDMGKMLGGEEEKDPDAQKKEEERQEALRQQEEERKAKHARMEAEREKVRQQIRDKYGLKKKEEKEAEEKAALEQPCEGSLTRPKKAIPAGCGDEEEEEEESILDTVLKYLPGPLQDMFKK |
| no binding | Rab2a_IPI:IPI00137227.1 (other, mouse, UniProt P53994 2-212, looked up) AYAYLFKYIIIGDTGVGKSCLLLQFTDKRFQPVHDLTIGVEFGARMITIDGKQIKLQIWDTAGQESFRSITRSYYRGAAGALLVYDITRRDTFNHLTTWLEDARQHSNSNMVIMLIGNKSDLESRREVKKEEGEAFAREHGLIFMETSAKTASNVEEAFINTAKEIYEKIQEGVFDINNEANGIKIGPQHAATNASHGSNQGGQQAGGGCC |
| no binding | Rab5b_IPI:IPI00116563.2 (other, mouse, UniProt P61021 2-215, looked up) TSRSTARPNGQPQASKICQFKLVLLGESAVGKSSLVLRFVKGQFHEYQESTIGAAFLTQSVCLDDTTVKFEIWDTAGQERYHSLAPMYYRGAQAAIVVYDITNQETFARAKTWVKELQRQASPSIVIALAGNKADLANKRMVEYEEAQAYADDNSLLFMETSAKTAMNVNDLFLAIAKKLPKSEPQNLGGAAGRSRGVDLHEQSQQNKSQCCSN |
